Experimental data from patent publication US9289478B2, “Formulations of tumour-associated peptides binding to human leukocyte antigen (HLA) class I or class II molecules for vaccine” (IMMATICS BIOTECHNOLOGIES GMBH, priority 2008, dated 2016).
Ends that are not written are not given here.

How the values were obtained:
Type in all cases: physicochemical
[1] = HPLC-assay for stability of peptides in lyophilised formulation on storage for 3 months (Example 4); conditions: for stability of peptides in formulation, 1 M: 1 month; for stability of peptides in formulation, 2 M: 2 months; for stability of peptides in formulation, 3 M: 3 months
Method: (§1) Identity, purity and peptide content are determined by analytical RP-HPLC chromatography. Detection wavelength was 220 nm.

[2] = HPLC-assay for in-use stability after reconstitution with 4.2% sodium hydrogen carbonate solution (Example 3, peptides SEQ ID NO 11-23)
Method: For clinical trials the above described formulation is dissolved in 700 μl sodium hydrogen carbonate (4.2%). To dissolve the lyophilisate, the vial and the diluent shall be shaken vigorously for 1 minute, check whether solution is clear, otherwise continue shaking for another minute until the solution is clear. Administration of 500 μL of the solution has to occur within 1 h after reconstitution. Dissolved lyophilisate may be stored aseptically at room temperature for up to 1 hour following reconstitution.
as §1

[3] = Solubility of peptide in 90% acetic acid and in water
Excerpt: Advantageously, the formulation according to the invention is suitable for stable formulations containing very hydrophobic peptides (for example IMA-CHI-001; SEQ ID NO: 23).

## NLDTLMTYV (listed as Homo sapiens) [NLGN4X-001, Neuroligin 4, X-linked peptide]
[1]; +5° C. +/- 3° C.
  stability of peptides in formulation, 1 M: 99.12 % of Initial
  stability of peptides in formulation, 2 M: 98.24 % of Initial
  stability of peptides in formulation, 3 M: 98.84 % of Initial
  stability of peptides in formulation, INITIAL: 100.0%
[1]; +25° C. +/- 2° C.
  stability of peptides in formulation, 1 M: 97.90 % of Initial
  stability of peptides in formulation, 2 M: 96.30 % of Initial
  stability of peptides in formulation, 3 M: 96.41 % of Initial
  stability of peptides in formulation, INITIAL: 100.0%
[1]; -20° C. +/- 5° C.
  stability of peptides in formulation, 1 M: 99.05 % of Initial
  stability of peptides in formulation, 2 M: 97.60 % of Initial
  stability of peptides in formulation, 3 M: 98.62 % of Initial
  stability of peptides in formulation, INITIAL: 100.0%
[2]; +Mannitol/Lutrol, 2h
  in-use stability, Peptide [%]: 100.8%
[2]; +Mannitol/Lutrol, 4h
  in-use stability, Peptide [%]: 100.9%
[2]; +Mannitol/Lutrol, 6h
  in-use stability, Peptide [%]: 100.5%
[2]; +Mannitol/Lutrol, Initial
  in-use stability, Peptide [%]: 100.0%
[2]; no excipients, 2h
  in-use stability, Peptide [%]: 99.9%
[2]; no excipients, 4h
  in-use stability, Peptide [%]: 100.5%
[2]; no excipients, 6h
  in-use stability, Peptide [%]: 95.7%
[2]; no excipients, Initial
  in-use stability, Peptide [%]: 100.0%

## SLWAGVVVL [CHI-001]
[3]; 90% acetic acid
  solubility: ~2900 µg/mL
[3]; water
  solubility in water: very insoluble
[2]; +Mannitol/Lutrol, 2h
  in-use stability, Peptide [%]: 100.0%
[2]; +Mannitol/Lutrol, 6h
  in-use stability, Peptide [%]: 100.2%
[2]; +Mannitol/Lutrol, Initial
  in-use stability, Peptide [%]: 100.0%
[2]; no excipients, 2h
  in-use stability, Peptide [%]: 102.2%
[2]; no excipients, 6h
  in-use stability, Peptide [%]: 90.6%
[2]; no excipients, Initial
  in-use stability, Peptide [%]: 100.0%

## TFSYVDPVITSISPKYG (listed as Homo sapiens) [MET-005, Met proto-oncogene peptide]
[1]; +5° C. +/- 3° C.
  stability of peptides in formulation, 1 M: 99.06 % of Initial
  stability of peptides in formulation, 2 M: 97.92 % of Initial
  stability of peptides in formulation, 3 M: 98.59 % of Initial
  stability of peptides in formulation, INITIAL: 100.0%
[1]; +25° C. +/- 2° C.
  stability of peptides in formulation, 1 M: 97.49 % of Initial
  stability of peptides in formulation, 2 M: 96.13 % of Initial
  stability of peptides in formulation, 3 M: 97.21 % of Initial
  stability of peptides in formulation, INITIAL: 100.0%
[1]; -20° C. +/- 5° C.
  stability of peptides in formulation, 1 M: 99.14 % of Initial
  stability of peptides in formulation, 2 M: 97.54 % of Initial
  stability of peptides in formulation, 3 M: 99.00 % of Initial
  stability of peptides in formulation, INITIAL: 100.0%
[2]; +Mannitol/Lutrol, 2h
  in-use stability, Peptide [%]: 100.5%
[2]; +Mannitol/Lutrol, 4h
  in-use stability, Peptide [%]: 100.7%
[2]; +Mannitol/Lutrol, 6h
  in-use stability, Peptide [%]: 100.4%
[2]; +Mannitol/Lutrol, Initial
  in-use stability, Peptide [%]: 100.0%
[2]; no excipients, 2h
  in-use stability, Peptide [%]: 100.3%
[2]; no excipients, 4h
  in-use stability, Peptide [%]: 100.7%
[2]; no excipients, 6h
  in-use stability, Peptide [%]: 96.0%
[2]; no excipients, Initial
  in-use stability, Peptide [%]: 100.0%

## TLGEFLKLDRERAKN (listed as Homo sapiens) [BIR-002, Baculoviral IAP repeat-containing 5 (survivin) peptide]
[1]; +5° C. +/- 3° C.
  stability of peptides in formulation, 1 M: 98.53 % of Initial
  stability of peptides in formulation, 2 M: 97.28 % of Initial
  stability of peptides in formulation, 3 M: 100.01 % of Initial
  stability of peptides in formulation, INITIAL: 100.0%
[1]; +25° C. +/- 2° C.
  stability of peptides in formulation, 1 M: 97.49 % of Initial
  stability of peptides in formulation, 2 M: 96.24 % of Initial
  stability of peptides in formulation, 3 M: 98.93 % of Initial
  stability of peptides in formulation, INITIAL: 100.0%
[1]; -20° C. +/- 5° C.
  stability of peptides in formulation, 1 M: 98.43 % of Initial
  stability of peptides in formulation, 2 M: 96.98 % of Initial
  stability of peptides in formulation, 3 M: 100.14 % of Initial
  stability of peptides in formulation, INITIAL: 100.0%
[2]; +Mannitol/Lutrol, 2h
  in-use stability, Peptide [%]: 100.8%
[2]; +Mannitol/Lutrol, 4h
  in-use stability, Peptide [%]: 101.2%
[2]; +Mannitol/Lutrol, 6h
  in-use stability, Peptide [%]: 100.9%
[2]; +Mannitol/Lutrol, Initial
  in-use stability, Peptide [%]: 100.0%
[2]; no excipients, 2h
  in-use stability, Peptide [%]: 100.6%
[2]; no excipients, 4h
  in-use stability, Peptide [%]: 101.4%
[2]; no excipients, 6h
  in-use stability, Peptide [%]: 96.2%
[2]; no excipients, Initial
  in-use stability, Peptide [%]: 100.0%

## TMLARLASA (listed as Homo sapiens) [CSP-001, Chondroitin sulfate proteoglycan 4 peptide]
[1]; +5° C. +/- 3° C.
  stability of peptides in formulation, 1 M: 98.99 % of Initial
  stability of peptides in formulation, 2 M: 98.05 % of Initial
  stability of peptides in formulation, 3 M: 99.81 % of Initial
  stability of peptides in formulation, INITIAL: 100.0%
[1]; +25° C. +/- 2° C.
  stability of peptides in formulation, 1 M: 98.04 % of Initial
  stability of peptides in formulation, 2 M: 96.99 % of Initial
  stability of peptides in formulation, 3 M: 98.71 % of Initial
  stability of peptides in formulation, INITIAL: 100.0%
[1]; -20° C. +/- 5° C.
  stability of peptides in formulation, 1 M: 98.99 % of Initial
  stability of peptides in formulation, 2 M: 97.61 % of Initial
  stability of peptides in formulation, 3 M: 99.61 % of Initial
  stability of peptides in formulation, INITIAL: 100.0%
[2]; +Mannitol/Lutrol, 2h
  in-use stability, Peptide [%]: 100.0%
[2]; +Mannitol/Lutrol, 4h
  in-use stability, Peptide [%]: 100.1%
[2]; +Mannitol/Lutrol, 6h
  in-use stability, Peptide [%]: 99.6%
[2]; +Mannitol/Lutrol, Initial
  in-use stability, Peptide [%]: 100.0%
[2]; no excipients, 2h
  in-use stability, Peptide [%]: 99.2%
[2]; no excipients, 4h
  in-use stability, Peptide [%]: 99.7%
[2]; no excipients, 6h
  in-use stability, Peptide [%]: 95.0%
[2]; no excipients, Initial
  in-use stability, Peptide [%]: 100.0%
